Source: patent US20150010572A1 (SAMSUNG ELECTRONICS, published 2015)
Where a chain is given by its changes, count along the chain named.

T1: mutant Ang-2 protein, Q418 substituted with alanine (FLAG-tagged at N-terminal) (human, UniProt O15123 281-496, limits assumed)
T1 construct: also called Q418A mutant protein; Ang-2 protein having Q418A mutation
T1 chain: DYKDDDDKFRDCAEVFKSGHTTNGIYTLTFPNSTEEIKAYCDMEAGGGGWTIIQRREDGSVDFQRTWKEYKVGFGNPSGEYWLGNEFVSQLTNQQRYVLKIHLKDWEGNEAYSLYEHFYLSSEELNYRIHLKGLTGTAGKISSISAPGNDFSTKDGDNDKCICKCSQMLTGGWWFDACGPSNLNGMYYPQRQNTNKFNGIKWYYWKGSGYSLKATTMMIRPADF

T2: mutant Ang-2 protein, P419 substituted with alanine (FLAG-tagged at N-terminal) (human, UniProt O15123 281-496, limits assumed)
T2 chain: T1 chain with A146Q, P147A

T3: mutant Ang-2 protein, N421 substituted with alanine (FLAG-tagged at N-terminal) (human, UniProt O15123 281-496, limits assumed)
T3 chain: T1 chain with A146Q, N149A

T4: mutant Ang-2 protein, I434 substituted with alanine (FLAG-tagged at N-terminal) (human, UniProt O15123 281-496, limits assumed)
T4 construct: also called 1434
T4 chain: T1 chain with A146Q, I162A

T5: mutant Ang-2 protein, D448 substituted with alanine (FLAG-tagged at N-terminal) (human, UniProt O15123 281-496, limits assumed)
T5 chain: T1 chain with A146Q, D176A

T6: mutant Ang-2 protein, F469 substituted with alanine (FLAG-tagged at N-terminal) (human, UniProt O15123 281-496, limits assumed)
T6 chain: T1 chain with A146Q, F197A

B1: SAIT-Ang-2-AB-m8B3 (antibody, V domains shown)
VH: DVQLQESGPGLVKPSQSLSLSCTVTGYSIASDYAWNWIRQFPGNKVEWMGYINYRGNTDYNPSLKSRSSINRDTSKNQFFLQLNSVTTGDTATYYCARGNFEGAMDYWGQGTSVTVSS
VL: TIVMTQTPKFLLVSAGDRITITCKASQSVSNDVAWYQQKPGQSPKLLIYYASNRYPGVPDRFTGSGYGTDFTFTISTVQAEDLAVYFCQQDYTSPWTFGGGTELEIK
notes: also called KCLRF-BP-00293
B2: SAIT-Ang-2-AB-m2E7 (antibody, V domains shown)
VH: DLQLQESGPGLVKPSQSLSLTCTVTGYSITSDYAWNWIRQFPGNKLEWMGYISYSGSTSYNPSLKSRISITRDTSKNQFFLQLNSLTTEDTATYYCARGDYGNYVGPMDYWGQGTSVTVSS
VL: B1 VL with T1S, I19V, Q37R, P56T, T93S, W96L, G100A, G101R, E103K, I106L
notes: also called KCLRF-BP-00294

Key:
Experiment in all cases: ELISA, antibody coated, 250 ng FLAG-tagged mutant Ang-2, anti-FLAG-HRP, OD450 relative to native Ang-2
[1] = biological target: T1, mutant Ang-2 protein, Q418 substituted …
Method: (§1) Each well of a 96-well MaxiSorp™ flat-bottom plate (Nunc) was coated with 50 ul (microliter) of 1000 nM antibodies (Example 2). Then, the plate was washed five times with a 0.05% (v/v) Tween-20 containing PBS (PBST) and blocked with a 1% (v/v) BSA containing PBS at a room temperature for 2 hours. 250 ng of each mutant Ang-2 protein obtained by substituting S417, Q418, P419, N421, 1434, D448, A449, P452, Y460, N467, K468, or F469 residue of Ang-2 protein tagged with a FLAG sequence ([…], Sigma) at its N-terminal with alanine was added to each well of the plate, which was then allowed to react at a room temperature for 2 hours.
(§2) The plate was washed five times with a 0.05% (v/v) Tween-20 containing PBS, reacted with an anti-FLAG antibody (SIGMA) conjugated with HRP which was diluted in a 1% (v/v) BSA containing PBS at a ratio of 1:5,000 (v/v) at a room temperature for 1 hour, and washed five times with a 0.1% (v/v) Tween-20 containing PBS.
(§3) Finally, 50 ul of TMB substrates (Cell signaling) was added to each well of the plate to induce color development reaction at a room temperature for 3 min. and the reaction was ceased by the addition of 50 ul of Stop solution (Cell signaling) and then, OD450 values were measured on a plate reader (Molecular Devices). By comparing binding affinities with mutated Ang-2 to those of unmutated Ang-2, each epitope of Ang-2 antibodies was identified. The thus obtained measurement results of the binding affinities (%) of mutant Ang-2 against the binding affinity of the native Ang-2 are shown in the following Table 9.

[2] = biological target: T2, mutant Ang-2 protein, P419 substituted …
Method: as §1, §2, §3

[3] = biological target: T3, mutant Ang-2 protein, N421 substituted …
Method: as §1, §2, §3

[4] = biological target: T4, mutant Ang-2 protein, I434 substituted …
Method: as §1, §2, §3

[5] = biological target: T5, mutant Ang-2 protein, D448 substituted …
Method: as §1, §2, §3

[6] = biological target: T6, mutant Ang-2 protein, F469 substituted …
Method: as §1, §2, §3

Binder	% at RBD binding (mutant Ang-2 against native Ang-2) [1] [%]	% at RBD binding (mutant Ang-2 against native Ang-2) [2] [%]	% at RBD binding (mutant Ang-2 against native Ang-2) [3] [%]	% at RBD binding (mutant Ang-2 against native Ang-2) [4] [%]	% at RBD binding (mutant Ang-2 against native Ang-2) [5] [%]	% at RBD binding (mutant Ang-2 against native Ang-2) [6] [%]
B1	4.1	8.7	102	99.4	96.1	106
B2	0.6	88.6	98.9	102	96.9	102
